Assay results taken from patent publication US20250215108A1.
Where “and” joins values, the source holds several entries; their conditions need not be identical. Equal entries are not always repeated.

Experiments:
[1] = target: SIRPγ on peripheral human CD3+ T cells (human) (UniProt Q9P1W8); test: flow cytometry on peripheral human CD3+ T cells, 10 µg/ml; Exp 1 HV1
[2] = target: SIRPγ on peripheral human CD3+ T cells (human) (UniProt Q9P1W8); test: flow cytometry on peripheral human CD3+ T cells, 10 µg/ml; Exp 1 HV2
[3] = target: recombinant hSIRPa (Sino Biologicals, reference 10975-H08H) (human) (UniProt P78324); test: ELISA (ED50), immobilized hSIRPa, anti-mouse Fc detection
recombinant hSIRPa (Sino Biologicals, reference 10975-H08H) (human), sequence (P78324 other isoform, or with tags, fused parts or gaps H08H H08H limits assumed): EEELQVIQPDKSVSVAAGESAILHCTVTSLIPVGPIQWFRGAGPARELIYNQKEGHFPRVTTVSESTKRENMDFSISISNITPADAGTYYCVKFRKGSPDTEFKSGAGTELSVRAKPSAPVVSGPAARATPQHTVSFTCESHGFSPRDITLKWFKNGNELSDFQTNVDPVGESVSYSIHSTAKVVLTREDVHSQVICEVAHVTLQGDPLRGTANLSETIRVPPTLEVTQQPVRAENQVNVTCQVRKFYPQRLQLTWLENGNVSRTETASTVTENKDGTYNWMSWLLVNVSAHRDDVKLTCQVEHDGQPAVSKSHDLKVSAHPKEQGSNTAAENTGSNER

[4] = target: recombinant hSIRPa-His (Sino Biologicals, reference 11612-H08H) (human) (UniProt P78324); test: SPR (Biacore 3000); SIRPa-His immobilised on a CM5 chip (500 RU), antibody injected; 3 min association, 10 min dissociation
recombinant hSIRPa-His (Sino Biologicals, reference 11612-H08H) (human), sequence (P78324 31-370, form in doubt): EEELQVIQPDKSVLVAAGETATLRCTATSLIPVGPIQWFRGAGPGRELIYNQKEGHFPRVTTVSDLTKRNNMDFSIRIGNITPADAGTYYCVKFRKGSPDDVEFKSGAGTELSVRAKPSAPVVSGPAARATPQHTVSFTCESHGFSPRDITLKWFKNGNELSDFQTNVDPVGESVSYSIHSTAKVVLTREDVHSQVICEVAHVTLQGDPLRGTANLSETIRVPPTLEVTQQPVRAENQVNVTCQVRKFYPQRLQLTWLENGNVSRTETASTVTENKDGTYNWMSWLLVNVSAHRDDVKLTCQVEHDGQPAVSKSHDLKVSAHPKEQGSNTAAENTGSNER

SIRPγ on peripheral human CD3+ T cells (human), sequence (Q9P1W8 29-387): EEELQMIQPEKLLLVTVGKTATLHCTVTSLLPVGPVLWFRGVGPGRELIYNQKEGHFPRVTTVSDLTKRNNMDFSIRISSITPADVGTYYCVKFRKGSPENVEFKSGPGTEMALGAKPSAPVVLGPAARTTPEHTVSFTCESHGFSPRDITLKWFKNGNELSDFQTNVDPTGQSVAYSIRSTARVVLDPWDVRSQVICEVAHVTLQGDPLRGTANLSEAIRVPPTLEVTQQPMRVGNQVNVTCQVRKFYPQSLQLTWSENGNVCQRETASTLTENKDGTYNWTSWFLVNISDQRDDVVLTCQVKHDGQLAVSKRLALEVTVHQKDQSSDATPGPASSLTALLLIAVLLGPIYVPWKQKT

% of positive T-cells [1] [%] | % of positive T-cells [2] [%] | EC50 [3] | Kd [4] [nM] | koff [4] [s⁻¹] | kon [4] [M⁻¹ s⁻¹] | Substance
91.4 | 98.4 | – | – | – | – | LSB2.20 (specific anti-SIRPγ antibody)
3.72 | 7.69 | 0.16 nM and 0.024 µg/mL | 38.7 | 0.000949 | 24500 | SE5A5 (BioLegend BLE323802), antibody recognizing SIRP a/B
– | – | – | 1670 | 0.01 | 5980 | anti-SIRPa antibody SE7C2 (Santa Cruz sc-23863)
0.87 | 0.25 | – | – | – | – | anti-SIRPb antibody B4B6
